94 variants from the supplement of paper PMC10567573 can be followed below.

Sequences and labels used below:
B1: ZNF8 (parent)
chain: RTHTGEKPYTCSVCGKSFSRTTCL
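Also: lentivirally expressed fusions sorted by FACS into six bins by GFP to DsRed ratio, PSI derived from sequencing read proportions per bin multiplied by bin number.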

The data set covers variants of B1. Put plainly: protein stability index of a GFP-peptide fusion (GPS, HEK-293T) (PSI 1-6); higher = more stable. The following applies: c terminus: a fixed tail appended.
For the variant RTHTGEKPYTCSVCGKSFSRTFCL [T22F], the protein stability index stood at 2.3.
Turning to RTHTGEKPYTCSVCGKSFSRTECL [T22E], the protein stability index came out at 4.28.
As for RTHTGEKPYTCSVCGKSFSRTLCL [T22L], the protein stability index was 1.9.
Under RTHTGEKPYTCSVCGKSFSRTNCL [T22N] stands 2.94; under RTHTGEKPYTCSVCGKSFSRTSCL [T22S], 1.82; under RTHTGEKPYTCSVCGKSFSRTWCL [T22W], 1.86.
Next, RTHTGEKPYTCSVCGKSFSRTKCL [T22K]: 2.97; RTHTGEKPYTCSVCGKSFSRTYCL [T22Y]: 1.98; RTHTGEKPYTCSVCGKSFSRTPCL [T22P]: 2.43.
Regarding RTHTGEKPYTCSVCGKSFSRTDCL [T22D], the protein stability index turned out to be 2.27.
Next, RTHTGEKPYTCSVCGKSFSRTRCL [T22R]: 1.8; RTHTGEKPYTCSVCGKSFSRTHCL [T22H]: 2.24.
Under RTHTGEKPYTCSVCGKSFSRTGCL [T22G] stands 2.1; under RTHTGEKPYTCSVCGKSFSRTMCL [T22M], 1.63.
Next, RTHTGEKPYTCSVCGKSFSRTQCL [T22Q]: 2.5; RTHTGEKPYTCSVCGKSFSRTCCL [T22C]: 4.01; RTHTGEKPYTCSVCGKSFSRTACL [T22A]: 2.56.
As for RTHTGEKPYTCSVCGKSFSRTVCL [T22V], the protein stability index turned out to be 2.16.
Next, RTHTGEKPYTCSVCGKSFSITTCL [R20I]: 1.75.
For RTHTGEKPYTCSVCGKSFSNTTCL [R20N], the protein stability index was 2.76.
Next, RTHTGEKPYTCSVCGKSFSQTTCL [R20Q]: 2.87; RTHTGEKPYTCSVCGKSFSATTCL [R20A]: 2.55.
RTHTGEKPYTCSVCGKSFSYTTCL [R20Y]: the protein stability index stood at 2.91.
Next, RTHTGEKPYTCSVCGKSFSSTTCL [R20S]: 2.17; RTHTGEKPYTCSVCGKSFSWTTCL [R20W]: 2.47; RTHTGEKPYTCSVCGKSFSETTCL [R20E]: 3.14.
Under RTHTGEKPYTCSVCGKSFSHTTCL [R20H] stands 3.75; under RTHTGEKPYTCSVCGKSFSDTTCL [R20D], 3.46; under RTHTGEKPYTCSVCGKSFSFTTCL [R20F], 2.15.
Next, RTHTGEKPYTCSVCGKSFSTTTCL [R20T]: 2.77; RTHTGEKPYTCSVCGKSFSVTTCL [R20V]: 2.02; RTHTGEKPYTCSVCGKSFSMTTCL [R20M]: 2.18.
With RTHTGEKPYTCSVCGKSFSKTTCL [R20K], the protein stability index amounted to 2.76.
Next, RTHTGEKPYTCSVCGKSFSPTTCL [R20P]: 2.75; RTHTGEKPYTCSVCGKSFSGTTCL [R20G]: 3.17.
Under RTHTGEKPYTCSVCGKSFSLTTCL [R20L] stands 2.01.
Next, RTHTGEKPYTCSVCGKSFSCTTCL [R20C]: 5.54.
In the case of RTHTGEKPYTCSVCGKSFYRTTCL [S19Y], the protein stability index is 2.33.
Next, RTHTGEKPYTCSVCGKSFQRTTCL [S19Q]: 2.65; RTHTGEKPYTCSVCGKSFTRTTCL [S19T]: 2.41.
For RTHTGEKPYTCSVCGKSFFRTTCL [S19F], the protein stability index was 2.64.
Under RTHTGEKPYTCSVCGKSFVRTTCL [S19V] stands 3.91; under RTHTGEKPYTCSVCGKSFIRTTCL [S19I], 2.07; under RTHTGEKPYTCSVCGKSFLRTTCL [S19L], 2.51.
Next, RTHTGEKPYTCSVCGKSFERTTCL [S19E]: 2.67.
RTHTGEKPYTCSVCGKSFWRTTCL [S19W]: the protein stability index is 2.42.
Next, RTHTGEKPYTCSVCGKSFPRTTCL [S19P]: 2.26.
Under RTHTGEKPYTCSVCGKSFKRTTCL [S19K] stands 2.45; under RTHTGEKPYTCSVCGKSFMRTTCL [S19M], 2.5.
As to RTHTGEKPYTCSVCGKSFGRTTCL [S19G], the protein stability index is 2.35.
Under RTHTGEKPYTCSVCGKSFNRTTCL [S19N] stands 2.67; under RTHTGEKPYTCSVCGKSFARTTCL [S19A], 1.36; under RTHTGEKPYTCSVCGKSFDRTTCL [S19D], 2.79.
On to RTHTGEKPYTCSVCGKSFHRTTCL [S19H], for which the protein stability index was found to be 2.59.
Under RTHTGEKPYTCSVCGKSFRRTTCL [S19R] stands 3.8.
On to RTHTGEKPYTCSVCGKSFCRTTCL [S19C], for which the protein stability index is 3.7.
RTHTGEKPYTCSVCGKSFSRPTCL [T21P]: the protein stability index was determined as 2.58.
Under RTHTGEKPYTCSVCGKSFSRWTCL [T21W] stands 1.72.
Under RTHTGEKPYTCSVCGKSFSRLTCL [T21L] stands 2.83; under RTHTGEKPYTCSVCGKSFSRYTCL [T21Y], 2.32; under RTHTGEKPYTCSVCGKSFSRETCL [T21E], 2.67.
Under RTHTGEKPYTCSVCGKSFSRQTCL [T21Q] stands 2.49; under RTHTGEKPYTCSVCGKSFSRFTCL [T21F], 1.71; under RTHTGEKPYTCSVCGKSFSRRTCL [T21R], 2.39.
As for RTHTGEKPYTCSVCGKSFSRITCL [T21I], the protein stability index was determined as 2.15.
Consider RTHTGEKPYTCSVCGKSFSRVTCL [T21V], for which the protein stability index is 2.36.
Under RTHTGEKPYTCSVCGKSFSRNTCL [T21N] stands 1.99.
Under RTHTGEKPYTCSVCGKSFSRKTCL [T21K] stands 2.4.
For the variant RTHTGEKPYTCSVCGKSFSRSTCL [T21S], the protein stability index worked out at 2.16.
Under RTHTGEKPYTCSVCGKSFSRCTCL [T21C] stands 5.19.
Under RTHTGEKPYTCSVCGKSFSRHTCL [T21H] stands 3.29; under RTHTGEKPYTCSVCGKSFSRDTCL [T21D], 3.37; under RTHTGEKPYTCSVCGKSFSRGTCL [T21G], 3.27.
Next, RTHTGEKPYTCSVCGKSFSRATCL [T21A]: 2.7; RTHTGEKPYTCSVCGKSFSRMTCL [T21M]: 2.39; RTHTGEKPYTCSVCGKSFSRTTDL [C23D]: 2.46.
For the variant RTHTGEKPYTCSVCGKSFSRTTPL [C23P], the protein stability index turned out to be 2.63.
Under RTHTGEKPYTCSVCGKSFSRTTFL [C23F] stands 2.11; under RTHTGEKPYTCSVCGKSFSRTTML [C23M], 2.19.
Next, RTHTGEKPYTCSVCGKSFSRTTAL [C23A]: 2.21; RTHTGEKPYTCSVCGKSFSRTTKL [C23K]: 2.28.
As to RTHTGEKPYTCSVCGKSFSRTTLL [C23L], the protein stability index was determined as 1.93.
Regarding RTHTGEKPYTCSVCGKSFSRTTEL [C23E], the protein stability index was 3.
Next, RTHTGEKPYTCSVCGKSFSRTTGL [C23G]: 2.43; RTHTGEKPYTCSVCGKSFSRTTHL [C23H]: 2.26; RTHTGEKPYTCSVCGKSVSRTTCL [F18V]: 2.5.
Under RTHTGEKPYTCSVCGKSRSRTTCL [F18R] stands 2.56; under RTHTGEKPYTCSVCGKSTSRTTCL [F18T], 2.48; under RTHTGEKPYTCSVCGKSNSRTTCL [F18N], 2.53.
Next, RTHTGEKPYTCSVCGKSQSRTTCL [F18Q]: 2.39.
RTHTGEKPYTCSVCGKSSSRTTCL [F18S]: the protein stability index amounted to 2.73.
Under RTHTGEKPYTCSVCGKSYSRTTCL [F18Y] stands 2.23.
Next, RTHTGEKPYTCSVCGKSWSRTTCL [F18W]: 2.43.
Next, RTHTGEKPYTCSVCGKSPSRTTCL [F18P]: 2.01.
